Source: patent publication US20120093811A1 (published 2012)
Each block holds one binder with its values, some of them ahead of it.

B6: Source 1 VEGF-D, mature dimeric recombinant human VEGF-D (CSIRO) (ligand)
chain: FAATFYDIETLKVIDEEWQRTQCSPRETCVEVASELGKSTNTFFKPPCVNVFRCGGCCNEESLICMNTSTSYISKQLFEISVPLTSVPELVPVKVANHTGCKCLPTAPRHPYSIIRR
B7: Source 2 VEGF-D, purified recombinant human VEGF-D monomer (R&D Systems, Catalog Number 622-VD/CF) (ligand)
chain: FYDIETLKVIDEEWQRTQCSPRETCVEVASELGKSTNTFFKPPCVNVFRCGGCCNEESLICMNTSTSYISKQLFEISVPLTSVPELVPVKVANHTGCKCLPTAPRHPYS

Tests used:
[1] = target: T1, VEGF-D (recombinant human; source not given) (human, UniProt O43915 89-205, limits assumed); assay: SPR (BIAcore), purified 1A scFv on VEGF-D, repeat 1
T1 construct: also used here as target of IC50 values averaged over Source 1 and Source 2; also called vascular endothelial growth factor-D
T1 sequence: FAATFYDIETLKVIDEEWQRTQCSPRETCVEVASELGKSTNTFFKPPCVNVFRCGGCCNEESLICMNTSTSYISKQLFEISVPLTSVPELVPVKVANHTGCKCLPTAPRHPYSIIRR
Protocol: (§1) Kinetic values were obtained for the three humanized scFv variants, 1A, 3A and 4A (Table 2). All isolated scFv samples were purified as monomer peaks by anti-FLAG affinity and gel filtration chromatography. BIAcore™ analysis was performed by directly immobilizing VEGF-D on a CM5 surface using amine coupling, with the scFv run as the analyte. Analysis of binding was carried out using the BIAevaluation kinetic analysis software. All repeats were separate protein expressions and were performed at 25° C.
(§2) The binding of purified 1A scFv to VEGF-D was analyzed using a BIAcore™ biosensor (Table 3).

[2] = target: T1, VEGF-D (recombinant human; source not …); assay: SPR (BIAcore), purified 1A scFv on VEGF-D, average of three repeats
Protocol: as §1, §2

[3] = target: T1, VEGF-D (recombinant human; source not …); assay: SPR (BIAcore), purified 1A scFv on VEGF-D, repeat 2
Protocol: as §1, §2

[4] = target: T1, VEGF-D (recombinant human; source not …); assay: SPR (BIAcore), purified 1A scFv on VEGF-D, repeat 3
Protocol: as §1, §2

[5] = target: T1, VEGF-D (recombinant human; source not …); assay: SPR (BIAcore), VEGF-D amine-coupled on CM5, purified scFv as analyte, 25 C
Protocol: as §1

[6] = target: T1, VEGF-D (recombinant human; source not …); assay: SPR (BIAcore), VEGF-D amine-coupled on CM5, purified scFv as analyte
Protocol: scFv variants were fully characterized using a BIAcore™ biosensor. All isolated scFv samples were purified as monomer peaks by anti-FLAG affinity chromatography followed by gel filtration chromatography. BIAcore™ analysis was performed by directly immobilizing VEGF-D on a CM5 surface using amine coupling, with the scFv run as the analyte. Analysis of binding was carried out using the BIAevaluation kinetic analysis software. All repeats were separate protein expressions and were performed at 25° C.
Clones F61, A63, AR7, AW61, CJ37, DI126 and DA18 were produced in large-scale expression cultures and purified by anti-FLAG affinity chromatography and gel filtration. The binding kinetics against VEGF-D were then measured using a BIAcore™ biosensor as described previously.

[7] = target: B7; assay: SPR, IgG captured by anti-human IgG (Fc), Source 2 VEGF-D monomer as analyte
[8] = target: B6; assay: cell-based or functional assay
[9] = target: B7; assay: cell-based or functional assay
[10] = target: B7; assay: SPR, KD against that of Ig-1A
[11] = target: B6; assay: SPR Protocol A: IgG captured by anti-human Fc, VEGF-D dimer as analyte
Protocol: (§3) Protocol A: The first assay format, Protocol A, used an assay system where IgGs were captured on a biosensor chip surface using an anti-human IgG (Fc) antibody and the Source 1 VEGF-D dimer run over the chip as the analyte in solution. This ensured that all IgG molecules were presented to the antigen in an active orientation.
(§4) The SPR protocol was slightly modified to compensate for the dimeric nature of the VEGF-D. Ig-1A or IgG variants were analyzed using an anti-human capture kit as described for Anti-human IgG (Fc) capture above, except that 1000 RU of the IgG or IgG variant was captured on the anti-human chip surface. […] The kinetics generated using this approach are accurate within the experimental parameters set. This standard assay protocol is best suited to studying 1:1 interactions and thus, may not be ideal for analyzing binding between the IgG variants and the VEGF-D dimer. In light of this, Protocol B was also used.

[12] = target: B6; assay: SPR Protocol B: VEGF-D dimer amine-coupled, IgG as analyte
Protocol: (§5) Protocol B: In the second assay format, Protocol B, the orientation of the IgGs and the VEGF-D antigen was reversed relative to Protocol A. The Source 1 VEGF-D dimer was immobilized directly on the chip surface by amine coupling and the murine anti-VEGF-D monoclonal antibody, Ig-1A or IgG variants flowed over this surface as analytes at concentrations of 4 nM, 1.33 nM, and 0.44 nM. This protocol allowed avidity effects to be controlled by reducing the density of dimeric VEGF-D immobilized on the chip and in effect reduce the bivalent binding properties of the system being analyzed.
(§6) All four flow cells on a CM5 chip were activated for 7 min at 25° C. using a mixture of NHS.EDC. Flow cell one was used as an unmodified (activated and blocked) reference against flow cells 2-4. Source 1 VEGF-D dimer was diluted to 1-3 μg/ml into 10 mM sodium acetate, pH 4, and injected over three surfaces for different lengths of time to achieve low ligand densities of 10, 15 and 20 RU to minimize avidity effects of the IgG. All surfaces were blocked for 7 min with ethanolamine (1M, pH 8.2) and pre-conditioned using five 10 s injections of 100 mM H₃PO₄; 1M NaCl. Immobilization steps were carried out at a flow rate of 30 μl/min using HBS-N running buffer.
(§7) All IgG binding experiments were performed at 25° C. using HBS-EP+ running buffer. Analytes (murine reference anti-VEGF-D monoclonal antibody and humanized variants) were injected for 200 s at a flow rate of 70 μl/min and dissociation monitored for 250 s. The antigen surfaces were regenerated with a 10 s pulse of 100 mM H₃PO₄; 1M NaCl. Analyte concentrations used for murine and humanized variants were 4 nM, 1.33 nM, and 0.44 nM. Data was processed using the reference surface and double referencing from blank injections. Binding constants for the IgG/antigen interactions were determined from the three antigen surfaces globally fitted to a 1:1 interaction model. Refractive index parameter was constant (RI=0).

[13] = target: B6; assay: SPR Protocol B, KD against that of Ig-1A
Protocol: as §5, §6, §7

[14] = target: B6; assay: SPR Protocol A, KD against that of Ig-1A
Protocol: as §3, §4

[15] = target: VEGFR-2-EpoR chimeric receptor on VEGFR-2-Ba/F3 cells (mouse, UniProt P35918 20-762); assay: cell-based or functional assay
Chain of VEGFR-2-EpoR chimeric receptor on VEGFR-2-Ba/F3 cells (P35918 20-762, change not shown): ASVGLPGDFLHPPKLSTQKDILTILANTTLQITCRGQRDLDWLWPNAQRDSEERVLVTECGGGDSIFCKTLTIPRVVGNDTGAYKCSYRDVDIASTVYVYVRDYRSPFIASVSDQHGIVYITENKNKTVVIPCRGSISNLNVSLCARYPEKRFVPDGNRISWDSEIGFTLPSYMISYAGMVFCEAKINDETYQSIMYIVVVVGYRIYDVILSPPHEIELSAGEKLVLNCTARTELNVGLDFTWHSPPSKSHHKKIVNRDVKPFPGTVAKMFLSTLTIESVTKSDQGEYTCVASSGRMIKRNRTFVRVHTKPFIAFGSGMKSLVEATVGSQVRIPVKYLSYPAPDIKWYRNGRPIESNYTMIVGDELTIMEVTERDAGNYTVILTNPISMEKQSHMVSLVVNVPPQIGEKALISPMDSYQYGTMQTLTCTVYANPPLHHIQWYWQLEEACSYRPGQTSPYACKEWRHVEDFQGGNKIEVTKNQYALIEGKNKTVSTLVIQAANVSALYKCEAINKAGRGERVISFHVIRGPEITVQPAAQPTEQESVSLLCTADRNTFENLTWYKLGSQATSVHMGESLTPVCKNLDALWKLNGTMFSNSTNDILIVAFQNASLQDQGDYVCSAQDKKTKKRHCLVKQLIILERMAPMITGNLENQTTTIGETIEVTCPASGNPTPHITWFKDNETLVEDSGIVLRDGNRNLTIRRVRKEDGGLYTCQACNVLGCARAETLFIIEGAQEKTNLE

Kd [1]: 14.2 nM
koff [1]: 0.0109 s⁻¹
kon [1]: 769000 M⁻¹ s⁻¹
Kd [2]: 13.1 nM
koff [2]: 0.0108 s⁻¹
kon [2]: 845000 M⁻¹ s⁻¹
Kd [3]: 10.4 nM
koff [3]: 0.011 s⁻¹
kon [3]: 1.06e+06 M⁻¹ s⁻¹
Kd [4]: 14.8 nM
koff [4]: 0.0104 s⁻¹
kon [4]: 707000 M⁻¹ s⁻¹
Kd [5]: 13.1 nM
koff [5]: 0.0109 s⁻¹
kon [5]: 769000 M⁻¹ s⁻¹
Kd [6]: 13.1 nM
koff [6]: 0.0108 s⁻¹
kon [6]: 845000 M⁻¹ s⁻¹
B1: humanized scFv 1A (scFv)
scFv: QVQLVQSGAEVKQPGASVKVSCKASGYTFTGYNMYWVRQAPGQGLEWMGYIDPYNGDTTYNQKFKGRVTMTTDTSTSTAYMELRSLRSDDTAVYYCARTSYYGGMDYWGRGTLVTVASGGGASGGGGSGGGGSDIVMTQTPLSSPVTLGQPASISCRSSQSLVHSNGNTYLHWLQQRPGQPPRLLIYKVSNRFSGVPDRFSGSGAGTDFTLKISRVEAEDVGVYYCSQSTHVPRTFGQGTKLEIKR
notes: also called 1A scFv; clone 1A

Kd [7]: 5 nM
koff [7]: 0.00824 s⁻¹
rank in the VEGFR-3-Ba/F3 bioassay [8]: 5 rank
rank in the VEGFR-3-Ba/F3 bioassay [9]: 8 rank
Fold-improvement with respect to Ig-1A [10]: 1.8 fold
B2: humanized IgG antibody derived from clone F61 (antibody, V domains shown)
VH: QVQLVQSGAEVKQPGASVKVSCKASGYTFTGYNMYWVRQAPGQGLEWMGYIDPYNGDTTYNQKFKGRVTMTTDTSTSTAYMKLRSLRSDDTAVYYCARTSYYGGMDYWGRGTLVTVAS
VL: DIVMTQTPLSSPVTLGQPASISCRSSQSLVHSNGNTYLHWLQQRPGQPPRLLIYKVSNRFSGVPDRFSGSGAGTDFTLKISRVEAEDVGVYYCSQSTHVPRTFGQGTKLEIKR
notes: IgG

Kd [11]: 0.699 nM
koff [11]: 0.00039 s⁻¹
kon [11]: 560000 M⁻¹ s⁻¹
Kd [7]: 4.1 nM
koff [7]: 0.0041 s⁻¹
kon [7]: 1e+06 M⁻¹ s⁻¹
rank in the VEGFR-3-Ba/F3 bioassay [8]: 2 rank
rank in the VEGFR-3-Ba/F3 bioassay [9]: 2 rank
Kd [12]: 0.88 nM
koff [12]: 0.0012 s⁻¹
kon [12]: 1.3e+06 M⁻¹ s⁻¹
Fold-improvement with respect to Ig-1A [10]: 2.2 fold
Fold-improvement with respect to Ig-1A [13]: 2 fold
Fold-improvement with respect to Ig-1A [14]: 1 fold
B3: humanized IgG antibody derived from clone DI26 (antibody, V domains shown)
VH: QVQLVQSGAKVKQPGASVKASCKASGYTFTGYNMYWVRQAPGQGLEWMGYIDPYSGDTTYNQKFKGRVTMTTDTSTSTAYMELRSLRSDDTAVYYCARTSYYGGMDYWGRGTLVTVAS
VL: DIVMTQTPLSSPVTLGQPASISCRSSQSLVHSNGNTYLHWLQQRPGQPPRLLIYKVSNRFSGVPDRFSGSGAGTDFTLKISRVEAEDVGVYYCSQSTHVPRTFGQGTKLEIKR
notes: IgG

Kd [7]: 7 nM
koff [7]: 0.00677 s⁻¹
kon [7]: 970000 M⁻¹ s⁻¹
Fold-improvement with respect to Ig-1A [10]: 1.3 fold
B4: humanized IgG antibody derived from clone A63 (antibody, V domains shown)
VH: QVQLVQSGAKVKQPGASVKASCKASGYTFTGYNMYWVRQAPGQGLEWMGYIDPYNGDTTYNQKFKGRVTMTTDTSTSTAYMELRSLRSDDTAVYYCARTSYYGGMDYWGRGTLVTVAS
VL: DIVMTQTPLSSPVTLGQPASISCRSSQSLVHSNGNTYLHWLQQRPGQPPRLLIYKVSNRFSGVPDRFSGSGAGTDFTLKISRVEAEDVGVYYCSQSTHVPRTFGQGTKLEIKR
notes: IgG

Kd [7]: 4.1 nM
koff [7]: 0.00725 s⁻¹
rank in the VEGFR-3-Ba/F3 bioassay [8]: 6 rank
rank in the VEGFR-3-Ba/F3 bioassay [9]: 4 rank
Fold-improvement with respect to Ig-1A [10]: 2.2 fold
B5: humanized IgG antibody derived from clone AW61 (antibody, V domains shown)
VH: QVQLVQSGAEVKQPGASVKVSCKASGYTFTGYNMYWVRQAPGQGLEWMGYIDPYNGDTTYNQKFKGRATMTTDTSTSTAYMKLRSLRSDDTAVYYCARTSYYGGMDYWGRGTLVTVAS
VL: DIVMTQTPLSSPVTLGQPASISCRSSQSLVHSNGNTYLHWLQQRPGQPPRLLIYKVSNRFSGVPDRFSGSGAGTDFTLKISRVEAEDVGVYYCSQSTHVPRTFGQGTKLEIKR
notes: IgG

Binder: B6
concentration within EC50-EC80 for proliferation of VEGFR-2-Ba/F3 cells [15]: 0.005 µg/mL

Binder: B7
concentration within EC50-EC80 for proliferation of VEGFR-2-Ba/F3 cells [15]: 0.1 µg/mL
